What was measured:
human CX3CR1 [1] = molecular target: T1, human CX3CR1 (human, UniProt P49238 1-355); assay: flow cytometry, AF-647 labelled soluble CX3CL1 on transiently transfected HEK293T cells, human CX3CR1 WT
T1 construct: Overexpressed on CHO K1, Ba/F3 or HEK293T cells; also called huCX3CR1; hCX3CR1
T1 sequence: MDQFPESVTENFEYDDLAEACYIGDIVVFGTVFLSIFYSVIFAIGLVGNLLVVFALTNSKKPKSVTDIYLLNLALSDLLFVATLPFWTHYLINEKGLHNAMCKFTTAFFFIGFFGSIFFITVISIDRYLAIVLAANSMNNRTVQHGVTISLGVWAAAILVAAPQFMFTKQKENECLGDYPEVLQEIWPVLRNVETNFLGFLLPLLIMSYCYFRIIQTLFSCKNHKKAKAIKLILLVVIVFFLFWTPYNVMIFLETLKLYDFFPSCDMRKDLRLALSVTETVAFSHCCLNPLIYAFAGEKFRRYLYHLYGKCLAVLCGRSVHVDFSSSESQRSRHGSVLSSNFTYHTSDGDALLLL

human CX3CR1 V249I = molecular target: T2, human CX3CR1 V249I (human, UniProt P49238 1-355); assay: flow cytometry, AF-647 labelled soluble CX3CL1 on transiently transfected HEK293T cells, human CX3CR1 V249I
T2 construct: Transiently transfected in HEK293T cells (pcDNA3.1); also called huCX3CR1 variant V249I (Rs3732379); printed V2491 in the text
T2 sequence: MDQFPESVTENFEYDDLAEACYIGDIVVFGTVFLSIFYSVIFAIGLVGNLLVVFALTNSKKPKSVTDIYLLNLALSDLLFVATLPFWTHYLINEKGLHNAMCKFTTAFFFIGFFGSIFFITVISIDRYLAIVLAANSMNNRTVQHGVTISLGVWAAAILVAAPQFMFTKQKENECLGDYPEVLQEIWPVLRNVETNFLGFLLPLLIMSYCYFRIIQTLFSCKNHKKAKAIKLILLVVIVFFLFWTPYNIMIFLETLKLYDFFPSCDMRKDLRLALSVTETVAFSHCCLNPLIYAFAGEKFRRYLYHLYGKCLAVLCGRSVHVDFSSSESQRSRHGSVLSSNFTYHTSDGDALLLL

human CX3CR1 V249I/T280M = molecular target: T3, human CX3CR1 V249I/T280M (human, UniProt P49238 1-355); assay: flow cytometry, AF-647 labelled soluble CX3CL1 on transiently transfected HEK293T cells, human CX3CR1 V249I/T280M
T3 construct: Transiently transfected in HEK293T cells (pcDNA3.1); also called huCX3CR1 variant V249I and T280M
T3 chain: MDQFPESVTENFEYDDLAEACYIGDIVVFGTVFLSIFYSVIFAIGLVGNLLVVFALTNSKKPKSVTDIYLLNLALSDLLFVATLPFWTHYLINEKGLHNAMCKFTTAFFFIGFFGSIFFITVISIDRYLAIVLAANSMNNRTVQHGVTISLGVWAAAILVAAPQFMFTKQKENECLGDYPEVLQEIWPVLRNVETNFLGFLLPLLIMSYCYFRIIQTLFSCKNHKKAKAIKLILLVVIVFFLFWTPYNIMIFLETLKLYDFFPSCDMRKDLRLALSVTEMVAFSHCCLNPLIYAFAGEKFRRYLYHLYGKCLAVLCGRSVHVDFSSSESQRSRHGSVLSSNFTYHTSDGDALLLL

mouse CX3CR1 = molecular target: T4, mouse CX3CR1 (mouse, UniProt Q9Z0D9 1-354); assay: cell-based or functional assay
T4 sequence (looked up): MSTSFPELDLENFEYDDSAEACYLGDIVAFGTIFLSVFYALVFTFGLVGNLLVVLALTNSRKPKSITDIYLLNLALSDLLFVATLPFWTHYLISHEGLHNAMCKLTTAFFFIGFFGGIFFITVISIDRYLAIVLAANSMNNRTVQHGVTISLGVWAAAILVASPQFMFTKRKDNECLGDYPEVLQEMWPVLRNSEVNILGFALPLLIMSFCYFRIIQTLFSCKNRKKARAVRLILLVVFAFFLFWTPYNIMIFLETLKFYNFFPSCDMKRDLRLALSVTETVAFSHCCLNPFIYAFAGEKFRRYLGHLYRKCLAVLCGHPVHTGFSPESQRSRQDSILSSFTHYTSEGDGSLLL

human CX3CR1 [2] = molecular target: T1, human CX3CR1; assay: cell-based or functional assay
human CX3CR1 T280M = molecular target: T5, human CX3CR1 T280M (human, UniProt P49238 1-355); assay: flow cytometry, AF-647 labelled soluble CX3CL1 on transiently transfected HEK293T cells, human CX3CR1 T280M
T5 construct: Transiently transfected in HEK293T cells (pcDNA3.1); also called huCX3CR1 variant T280M (Rs3732378)
T5 sequence: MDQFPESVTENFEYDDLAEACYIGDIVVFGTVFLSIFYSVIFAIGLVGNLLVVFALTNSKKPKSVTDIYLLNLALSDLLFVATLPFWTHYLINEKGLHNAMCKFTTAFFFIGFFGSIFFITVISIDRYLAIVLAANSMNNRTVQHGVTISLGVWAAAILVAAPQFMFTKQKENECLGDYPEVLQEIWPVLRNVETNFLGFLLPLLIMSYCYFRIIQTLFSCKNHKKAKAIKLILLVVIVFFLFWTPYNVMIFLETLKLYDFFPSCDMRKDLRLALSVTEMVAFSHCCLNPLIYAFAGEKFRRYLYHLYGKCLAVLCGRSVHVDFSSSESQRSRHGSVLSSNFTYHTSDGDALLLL

EC50 (human CX3CR1 [1]): 3.3 nM
EC50 (human CX3CR1 V249I): 2.1 nM
EC50 (human CX3CR1 V249I/T280M): 4.2 nM
EC50, ERK phosphorylation in CHO K1 mCX3CR1 cells (mouse CX3CR1): 2.5 nM
EC50, ERK phosphorylation in CHO K1 huCX3CR1 cells (human CX3CR1 [2]): 2 nM
EC50 (human CX3CR1 T280M): 19 nM
B1: human CX3CL1/Fraktalkine (ligand, UniProt P78423 25-339, looked up)
chain: QHHGVTKCNITCSKMTSKIPVALLIHYQQNQASCGKRAIILETRQHRLFCADPKEQWVKDAMQHLDRQAAALTRNGGTFEKQIGEVKPRTTPAAGGMDESVVLEPEATGESSSLEPTPSSQEAQRALGTSPELPTGVTGSSGTRLPPTPKAQDGGPVGTELFRVPPVSTAATWQSSAPHQPGPSLWAEAKTSEAPSTQDPSTQASTASSPAPEENAPSEGQRVWGQGQSPRPENSLEREEMGPVPAHTDAFQDWGPGSMAHVSVVPVSSEGTPSREPVASGSWTPKAEEPIHATMDPQRLGVLITPVPDAQAATR
modifications: labelled with AF647 (in house) in the binding and competition assays; unlabelled in the chemotaxis and pERK assays
notes: Bought protein; also called huCX3CL1; huCX3CL1-AF647
